Measurements as given in article PMC7402097, “Reduction of Protein Bound Methionine Sulfoxide by a Periplasmic Dimethyl Sulfoxide Reductase” (Antioxidants, 2020).

Columns and labels:
purified protein [1] = substrate: C[S+](C)[O-]; experiment: purified protein; conditions: Britton-Robinson buffer pH 6.0, 46 nM DorA, electron donor dithionite-reduced benzyl viologen
purified protein [2] = substrate: C[S+]([O-])CC[C@H](N)C(=O)O; experiment: purified protein; assay type: biochemical, Cereibacter sphaeroides; conditions: Britton-Robinson buffer pH 6.0, 46 nM DorA, electron donor dithionite-reduced benzyl viologen, R,S diastereomer mixture used, KM already divided by 2 to count only the S-diastereomer

B1: DorA DMSO reductase (Cereibacter sphaeroides) (protein)
chain: EGLANGEVMSGCHWGVFKARVENGRAVAFEPWDKDPAPSHQLPGVLDSIYSPTRIKYPMVRREFLEKGVNADRSTRGNGDFVRVTWDEALDLVARELKRVQESYGPTGTFGGSYGWKSPGRLHNCQVLMRRALNLAGGFVNSSGDYSTAAAQIIMPHVMGTLEVYEQQTAWPVVVENTDLMVFWAADPMKTNEIGWVIPDHGAYAGMKALKEKGTRVICINPVRTETADYFGADVVSPRPQTDVALMLGMAHTLYSEDLHDKDFLENCTTGFDLFAAYLTGESDGTPKTAEWAAEICGLPAEQIRELARSFVAGRTMLAAGWSIQRMHHGEQAHWMLVTLASMIGQIGLPGGGFGLSYHYSNGGSPTSDGPALGGISDGGKAVEGAAWLSESGATSIPCARVVDMLLNPGGEFQFNGATATYPDVKLAYWAGGNPFAHHQDRNRMLKAWEKLETFIVQDFQWTATARHADIVLPATTSYERNDIESVGDYSNRAILAMKKVVDPLYEARSDYDIFAALAERLGKGAEFTEGRDEMGWISSFYEAAVKQAEFKNVAMPSFEDFWSEGIVEFPITEGANFVRYADFREDPLFNPLGTPSGLIEIYSKNIEKMGYDDCPAHPTWMEPAERLGGAGAKYPLHVVASHPKSRLHSQLNGTSLRDLYAVAGHEPCLINPADAAARGIADGDVLRVFNDRGQILVGAKVSDAVMPGAIQIYEGGWYDPLDPSEEGTLDKYGDVNVLSLDVGTSKLAQGNCGQTILADVEKYAGAPVTVTVFDTPKGA
notes: full-length dorA with C-terminal 6-His tag (kept), pIND4-DorA-His; expressed in R. sphaeroides f. sp. denitrificans IL106 dorA- (host) and purified from periplasm; monomeric
Km (purified protein [1]): 1.8 ± 0.4 µM | kcat (purified protein [1]): 3.9 s⁻¹ | kcat/Km (purified protein [1]): 2.2e+06 M⁻¹ s⁻¹ | Km (purified protein [2]): 68.8 ± 5.7 µM | kcat (purified protein [2]): 4.2 ± 0.1 s⁻¹ | kcat/Km (purified protein [2]): 61000 M⁻¹ s⁻¹
